Consider two sequences from the Immune Epitope Database (IEDB).

For one assay, the target named is HLA-A*02:01. In words: IEDB peptide-MHC binding, purified MHC/direct/fluorescence; filed as Kd, often an IC50 or EC50 that approximates it; ≥ and ≤ were set here for values at or beyond the usual limits of such assays.
In the next assay the target is HLA-A*11:01. The description is as above.
The target in another assay is HLA-A*26:03. The assay is described as above.
Another assay concerns the target HLA-A*31:01. The description is as above.
A further assay deals with HLA-A*68:02. Described as above.
Another assay addresses HLA-A*69:01. The description is as above.
The next assay concerns the target HLA-B*07:02. Described as above.
The next assay addresses HLA-B*08:01. The assay is described as above. As to conditions: source organism: Francisella tularensis subsp. holarctica LVS.
Another assay addresses HLA-B*15:01. The assay is described as above.
The target of a further assay is HLA-B*15:09. The description is as above. The following applies: source organism: Francisella tularensis subsp. tularensis FSC033.
The target in another assay is HLA-B*18:01. The assay is described as above.
A further assay addresses HLA-B*39:01. Described as above. As to conditions: source organism: Francisella tularensis subsp. tularensis FSC033.
A further assay addresses HLA-B*57:01. The description is as above.
A further assay addresses HLA-B*58:01. The description is as above.
In assay [1] the target is HLA-A*01:01. In words: IEDB peptide-MHC binding, purified MHC/competitive/fluorescence; filed as Kd, often an IC50 or EC50 that approximates it; ≥ and ≤ were set here for values at or beyond the usual limits of such assays. The following applies: source organism: Francisella tularensis subsp. tularensis FSC198.
The target of another assay is HLA-A*26:01. The description is as above. The following applies: source organism: Francisella tularensis subsp. tularensis FSC198.
Another assay addresses HLA-A*26:02. The assay is described as above. The following applies: source organism: Francisella tularensis subsp. tularensis FSC198.
For assay [2], the target named is HLA-A*01:01. The assay can be described thus: IEDB peptide-MHC binding, purified MHC/direct/fluorescence; filed as Kd, often an IC50 or EC50 that approximates it; ≥ and ≤ were set here for values at or beyond the usual limits of such assays. The following applies: source organism: Marburg virus - Musoke, Kenya, 1980.
The target of a further assay is HLA-A*03:01. The assay is described as above. The following applies: source organism: Marburg virus - Musoke, Kenya, 1980.
Another assay addresses HLA-B*08:02. The description is as above. As to conditions: source organism: Orthomarburgvirus marburgense.
A further assay has as its target HLA-B*15:17. The assay is described as above. The following applies: source organism: Marburg virus - Musoke, Kenya, 1980.
A further assay addresses HLA-B*27:05. The assay is described as above. As to conditions: source organism: Marburg virus - Musoke, Kenya, 1980.
For a further assay, the target named is HLA-B*40:01. The assay is described as above. As to conditions: source organism: Marburg virus - Musoke, Kenya, 1980.
The next assay addresses HLA-B*46:01. The assay is described as above. As to conditions: source organism: Marburg virus - Musoke, Kenya, 1980.
In a further assay the target is HLA-B*48:01. Described as above. As to conditions: source organism: Marburg virus - Musoke, Kenya, 1980.
The mark [3] stands for this setting: source organism: Francisella tularensis subsp. holarctica LVS.
Where [4] appears, read: source organism: Francisella tularensis subsp. tularensis FSC033.
Setting [5] is: source organism: Marburg virus - Musoke, Kenya, 1980.

What is called Kd is the constant that tells how readily two partners part at equilibrium. A low value points to a tighter complex. Turning to EFKQILTDF, the dissociation constant Kd with HLA-A*02:01 (setting [3]), with HLA-A*11:01 (setting [3]), in the assay with HLA-A*26:03 (setting [4]), in the assay with HLA-A*31:01 (setting [3]), with HLA-A*68:02 (setting [3]) and with HLA-A*69:01 (setting [3]) was no less than 20 µM throughout. In addition, the Kd in the assay with HLA-B*07:02 (setting [3]) is no less than 20 µM; with HLA-B*08:01 it was 6 µM; with HLA-B*15:01 (setting [3]) it was no less than 20 µM; with HLA-B*15:09, no less than 20 µM; with HLA-B*18:01 (setting [4]) it was 1.03 µM; with HLA-B*39:01, no less than 20 µM. For the same sequence, the Kd with HLA-B*57:01 (setting [3]) was no less than 20 µM; with HLA-B*58:01 (setting [3]), no less than 20 µM; with HLA-A*01:01 [1], no less than 20 µM; with HLA-A*26:01, no less than 20 µM; with HLA-A*26:02 it was 0.457 µM.
Take KLDFIRNTK: the Kd with HLA-A*01:01 [2] is no less than 20 µM; with HLA-A*02:01 (setting [5]), no less than 20 µM; in the assay with HLA-A*03:01, 0.0444 µM; in the assay with HLA-A*11:01 (setting [5]), 0.604 µM; with HLA-A*26:03 (source organism: Orthomarburgvirus marburgense), no less than 20 µM; with HLA-A*31:01 (setting [5]), 2.16 µM. Further, the Kd with HLA-A*68:02 (setting [5]), with HLA-A*69:01 (setting [5]), with HLA-B*07:02 (setting [5]), with HLA-B*08:02, with HLA-B*15:01 (setting [5]) and in the assay with HLA-B*15:17 was no less than 20 µM throughout. For the same sequence, the Kd with HLA-B*18:01 (setting [5]), with HLA-B*27:05, with HLA-B*40:01, with HLA-B*46:01, in the assay with HLA-B*48:01 and with HLA-B*57:01 (setting [5]) was no less than 20 µM each time. Further, in the assay with HLA-B*58:01 (setting [5]), the Kd was no less than 20 µM.
